Assay [1] has as its target T1, Mouse TNFα (Mus musculus, UniProt P06804).
T1 construct: made in house
T1 sequence (P06804 80-235 limits assumed): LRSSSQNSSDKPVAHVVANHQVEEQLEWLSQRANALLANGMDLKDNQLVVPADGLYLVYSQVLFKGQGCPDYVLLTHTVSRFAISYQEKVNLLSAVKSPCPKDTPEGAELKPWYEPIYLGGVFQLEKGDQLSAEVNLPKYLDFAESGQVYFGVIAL
Kind of assay: BIAcore surface plasmon resonance, captured IgG, mouse TNFα +/− test compound. It is filed as binding. Here is the method:
(§1) Surface plasmon resonance was performed at 25° C. using a BIAcore T200 (GE Healthcare). Anti-Mouse Fc (Jackson 115-006-071) was immobilised on a […] Sensor Chip (GE Healthcare) via amine coupling chemistry to a capture level of 6000 response units. HBS-EP buffer (10 mM HEPES pH 7.4, 0.15 M NaCl, 3 mM EDTA, 0.05% (v/v) surfactant P20—GE Healthcare)+1% DMSO was used as the running buffer.
(§2) The surface was regenerated at a flow-rate of […] by a 60 s injection of 40 mM HCl×2 and a 30 s 5 mM NaOH. Double referenced background subtracted binding curves were analysed using the T200 Evaluation software (version 1.0) following standard procedures. Kinetic parameters were determined from the fitting algorithm.

Assay [2] deals with human TNFα complexed with compound (1) (Homo sapiens, UniProt P01375). Kind of assay: Size exclusion chromatography (HPLC) of mouse Fab with TNFα-compound complex. It is filed as binding. The following applies: Fab at 0.5×-2× molar excess. In general terms: Size exclusion chromatography separates by hydrodynamic size, large species first.
Assay [3] deals with membrane TNFα. Kind of assay: FACS assay with engineered NS0 cell line overexpressing membrane TNFα. It is filed as cell-based. The conditions noted are these: Fab fragments; NS0 cells incubated with compound (1) or DMSO control. Here is the method: An engineered NS0 cell line, which overexpresses membrane TNFα, due to knock-out of the TACE cleavage site was incubated with 0.001-10 μM compound (1) or 0.1% DMSO for 1 h at 37° C. Cells were washed, fixed and stained with antibody Fab fragments at 0.01 or 0.1 μg/ml for 1 hour on ice. (Secondary antibody was anti-mouse Fab-DyeLight488 from Jackson ImmunoResearch).
There is no staining with the DMSO controls.
(A flow cytometer gives signals particle by particle.)

The target of assay [4] is T2, Human TNFα (Homo sapiens, UniProt P01375). Kind of assay: BIAcore surface plasmon resonance, captured IgG, human TNFα +/− test compound. It counts as binding. Further details: Soluble form of human TNFα; made in house. Here is the method: as §1, §2
In general terms: In SPR one partner is held on a chip, and binding of the other changes the refractive index at the surface.
Target sequence in this assay (P01375 with tags, fused parts or gaps): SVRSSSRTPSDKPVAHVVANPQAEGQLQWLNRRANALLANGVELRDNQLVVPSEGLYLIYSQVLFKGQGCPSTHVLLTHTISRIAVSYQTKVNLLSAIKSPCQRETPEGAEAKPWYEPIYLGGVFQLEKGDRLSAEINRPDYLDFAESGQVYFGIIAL

Assay [5] addresses T2, Human TNFα. Kind of assay: FACS assay with HEK Jumpin cells overexpressing TNF-RI, receptor-bound TNFα. It counts as cell-based. Set-up: host or cells: HEK Jumpin cells (carry the TNF-RI. The following applies: antibody at 1 and 10 μg/ml; TNFα pre-incubated with compound (1) or DMSO control. Here is the method: HEK cells were trypsinised and incubated for 2 h in medium to allow recovery of digested TNFRI levels.
Target sequence in this assay (P01375 77-233 limits assumed): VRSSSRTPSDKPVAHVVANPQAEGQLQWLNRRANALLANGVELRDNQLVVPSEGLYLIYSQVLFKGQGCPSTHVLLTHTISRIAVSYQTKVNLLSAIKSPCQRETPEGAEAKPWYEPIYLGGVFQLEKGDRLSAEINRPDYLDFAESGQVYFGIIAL
Target sequence in this assay (P19438 22-455 partner limits assumed): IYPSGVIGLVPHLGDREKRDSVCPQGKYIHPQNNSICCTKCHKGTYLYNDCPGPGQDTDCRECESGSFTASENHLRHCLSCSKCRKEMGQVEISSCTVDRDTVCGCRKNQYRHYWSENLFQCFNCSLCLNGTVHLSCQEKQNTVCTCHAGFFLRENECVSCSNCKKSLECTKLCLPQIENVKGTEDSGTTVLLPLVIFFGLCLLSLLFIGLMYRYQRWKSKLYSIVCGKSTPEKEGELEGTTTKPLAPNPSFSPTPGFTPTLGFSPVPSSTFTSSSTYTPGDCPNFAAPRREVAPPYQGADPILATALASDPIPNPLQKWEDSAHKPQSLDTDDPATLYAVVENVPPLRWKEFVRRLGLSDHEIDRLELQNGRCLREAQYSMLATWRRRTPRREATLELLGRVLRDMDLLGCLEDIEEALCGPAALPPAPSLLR

What is called Kd is a measure of binding affinity in units of concentration.

Sequence of membrane TNFα (P01375 89-233 limits assumed): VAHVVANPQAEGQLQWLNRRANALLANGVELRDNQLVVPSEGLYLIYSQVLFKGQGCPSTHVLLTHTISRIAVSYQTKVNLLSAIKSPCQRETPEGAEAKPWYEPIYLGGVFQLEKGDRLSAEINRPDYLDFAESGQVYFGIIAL
Sequence of human TNFα complexed with compound (1) (P01375 77-233 limits assumed, one chain of several): as the sequence (P01375 77-233 limits assumed) above

B1: CA185_01979: rat-derived conformation-selective antibody to compound-bound TNFα; LCVR SEQ ID NO: 22, HCVR SEQ ID NO: 23 (antibody, V domains shown)
VH: EVHLVESGPGLVKPSQSLSLTCSVTGYSITNSYWDWIRKFPGNKMEWMGYINYSGSTGYNPSLKSRISISRDTSNNQFFLQLNSITTEDTATYYCARGTYGYNAYHFDYWGRGVMVTVSS
VL: DIQMTQSPASLSASLEEIVTITCQASQDIGNWLSWYQQKPGKSPHLLIYGTTSLADGVPSRFSGSRSGTQYSLKISGLQVADIGIYVCLQAYSTPFTFGSGTKLEIK
modifications: HCVR of 1979; DIQMTQSPASLSASLEEIVTITCQASQDIGNWLSWYQQKPGKSPHLLIYGTTSLADGVPSRFSGS RSGTQYSLKISGLQVADIGIYVCLQAYSTPFTFGSGTKLEIK
Regarding B1, the Kd in assay [1] (Mouse TNFα + compound (1)) was 0.38 nM; in assay [1] (Mouse TNFα apo), 27 nM. The ka in assay [1] (Mouse TNFα + compound (1)) was 160000 M⁻¹ s⁻¹; in assay [1] (Mouse TNFα + compound (2)) it was 190000 M⁻¹ s⁻¹; in assay [1] (Mouse TNFα apo), 72000 M⁻¹ s⁻¹; in assay [4] (Human TNFα + compound (1)) it was 470000 M⁻¹ s⁻¹; in assay [4] (Human TNFα + compound (2)), 570000 M⁻¹ s⁻¹; in assay [4] (Human TNFα apo) it was 110000 M⁻¹ s⁻¹. The kd was 6.3e-05 s⁻¹ in assay [1] (Mouse TNFα + compound (1)); 3.5e-05 s⁻¹ in assay [1] (Mouse TNFα + compound (2)); 0.002 s⁻¹ in assay [1] (Mouse TNFα apo); 1.6e-05 s⁻¹ in assay [4] (Human TNFα + compound (1)); 3.3e-05 s⁻¹ in assay [4] (Human TNFα + compound (2)); 0.00071 s⁻¹ in assay [4] (Human TNFα apo). For the same molecule, the “stoichiometry of Fab binding to TNFα trimer” value in assay [2] was 1 Fab: 1 TNFα trimer. In addition, the “FACS staining of membrane-bound TNFα” value in assay [3] is reported as “only recognise TNF which has been pre-incubated with compound (1)”. In assay [5], the “FACS staining of receptor-bound TNFα” value was “only recognise TNFα which has been pre-incubated with compound (1)”.

The values are drawn from patent publication US20210132079A1, “ANTIBODY” (UCB Biopharma SRL, priority 2015, published 2021).
